Positions count from the first letter of the chain named.
B1: M12-D10 (Fab, V domains shown)
VH: EVQLLESGGGLVQPGGSLRLSCAASGFTFSNYPMDWVRQAPGKGLEWVSSISSSGGWTNYADSVKGRFTISRDNSKNTLYLQMNSLRAEDTAVYYCATDTSGSYLGFDYWGQGTLVTVSS
VL: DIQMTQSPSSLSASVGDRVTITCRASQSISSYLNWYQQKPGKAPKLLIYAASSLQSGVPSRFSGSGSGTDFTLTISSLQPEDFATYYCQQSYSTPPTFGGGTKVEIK
notes: HC as printed runs into CH1
B2: M12-E06 (Fab, V domains shown)
VH: EVQLLESGGGLVQPGGSLRLSCAASGFTFSQYKMLWVRQAPGKGLEWVSGIGPSGGLTAYADSVKGRFTISRDNSKNTLYLQMNSLRAEDTAVYYCARAPWFGELGMDVWGQGTTVTVSS
VL: DIQMTQSPSSLSASVGDRVSITCRASQSISTYLNWYQHKPGKAPTLLIYGAFSLQSGVPSRFSGSGSGTDFALTISSLQPEDFATYYCQQSHSTPPTFGQGTRVEIK
notes: HC as printed runs into CH1
B3: M11-G12 (Fab, V domains shown)
VH: EVQLLESGGGLVQPGGSLRLSCAASGFTFSQYPMNWVRQAPGKGLEWVSSISSSGGFTTYADSVKGRFTISRDNSKNTLYLQMNSLRAEDTAVYYCAREEQQGGFDYWGQGTLVTVSS
VL: DIQMTQSPSSLSAFVGDRVSITCRASQTISVYVNWYQHKSGQAPKLLIYGASSLQSGVPSRFSGSGSGTDFTLTISSLQPEDFATYFCQQSYSIPFTFGGGTDVQIR
notes: HC as printed runs into CH1
B4: M27-F04 (Fab, V domains shown)
VH: EVQLLESGGGLVQPGGSLRLSCAASGFTFSWYPMTWVRQAPGKGLEWVSSIGPSGGQTIYADSVKGRFTISRDNSKNTLYLQMNSLRAEDTAVYYCTTEYGDYGGGFDPWGQGTLVTVSS
VL: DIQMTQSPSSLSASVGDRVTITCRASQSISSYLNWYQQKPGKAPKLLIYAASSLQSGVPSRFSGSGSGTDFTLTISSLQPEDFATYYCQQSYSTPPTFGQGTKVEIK
notes: HC as printed runs into CH1
B5: M27-G04 (Fab, V domains shown)
VH: EVQLLESGGGLVQPGGSLRLSCAASGFTFSAYYMVWVRQAPGKGLEWVSYISPSGGQTQYADSVKGRFTISRDNSKNTLYLQMNSLRAEDTAVYYCAREAISSSSFDYWGQGTLVTVSS
VL: DIQMTQSPSSLSASVGDRVTITCRASQRISYYLTWYQQKPGKVPKLLIYAASSLESGVPSRFSGSGSGTDFTLTISNLQPEDFATYYCQQAFSTPFTFGGGTKVEIK
notes: HC as printed runs into CH1
B6: M27-G09 (Fab, V domains shown)
VH: EVQLLESGGGLVQPGGSLRLSCAASGFTFSEYDMAWVRQAPGKGLEWVSYIVSSGGFTSYADSVKGRFTISRDNSKNTLYLQMNSLRAEDTAVYYCTTWAGWIAAADYWGQGTLVTVSS
VL: DIQMTQSPSSVSASVGDRITITCRTRQSISNYLNWYQQKPGEPPKLLIFAASSLQSGVPSRFSGSGTGTEFTLTISSLQPEDLAIYYCQQSYDIPFTFGQGTKLEIK
notes: HC as printed runs into CH1
B7: M12-A08 (Fab, V domains shown)
VH: EVQLLESGGGLVQPGGSLRLSCAASGFTFSWYYMGWVRQAPGKGLEWVSWIVSSGGLTLYADSVKGRFTISRDNSKNTLYLQMNSLRAEDTAMYYCARTTVTTGDAFDIWGQGTMVTVSS
VL: DIQMTQSPSSLSASVGDRVTITCRASQSISRYLNWYQQKPGKAPKLLIYAASTLETGVPSRFSGSGSGTDFTLTITTLQPEDFVIYYCQQSYSTPYTFGQGTKLEIK
notes: HC as printed runs into CH1
B8: M27-G01 (Fab, V domains shown)
VH: EVQLLESGGGLVQPGGSLRLSCAASGFTFSLYRMFWVRQAPGKGLEWVSSIWSSGGPTMYADSVKGRFTISRDNSKNTLYLQMNSLRAEDTAVYYCAREYPSTYYFDYWGQGTLVTVSS
VL: B7 VL with R31T, A50G, T53S, E55Q, T56S, T76S, T77S, V84T, T94D, E105D
notes: HC as printed runs into CH1
B9: M27-B12 (Fab, V domains shown)
VH: EVQLLESGGGLVQPGGSLRLSCAASGFTFSWYQMMWVRQAPGKGLEWVSSISPSGGITEYADSVKGRFTISRDNSKNTLYLQMNSLRAEDTAVYYCARDRSSGWYYYGMDVWGQGTTVTVSS
VL: QYELTQPPAVSVSPGQTATITCSGDKLGDEYAAWYQQKPGQSPVLVIYQDRKRPSGIPERFSGSNFGNTATLTITGTQVMDEADYYCQAWGKRNVVFGGGTKLTVL
notes: HC as printed runs into CH1
B10: M27-B01 (Fab, V domains shown)
VH: EVQLLESGGGLVQPGGSLRLSCAASGFTFSDYTMWWVRQAPGKGLEWVSSISSSGGITFYADSVKGRFTISRDNSKNTLYLQMNSLRAEDTAVYYCARSADTAMGGAFDIWGQGTMVTVSS
VL: not shown
notes: HC as printed runs into CH1
B11: M27-F11 (Fab, V domains shown)
VH: EVQLLESGGGLVQPGGSLRLSCAASGFTFSSYHMMWVRQAPGKGLEWVSSIYPSGGATMYADSVKGRFTISRDNSKNTLYLQMNSLRAEDTAMYYCARDGYHYGDYTYFQHWGQGTLVTVSS
VL: DIQMTQSPSFLSASVGDRVTITCRASQGISSYLAWYQQKPGKAPKLLIYAASSLQSGVPSRFSGSGSGTDFTLTISSLQPEDFATYYCQQSYNTLRTFGPGTKVDLK
notes: HC as printed runs into CH1
B12: M12-C09 (Fab, V domains shown)
VH: EVQLLESGGGLVQPGGSLRLSCAASGFTFSSYAMVWVRQAPGKGLEWVSSIGSSGGFTLYADSVKGRFTISRDNSKNTLYLQMNSLRAEDTAVYYCASMNLGGGDAFDIWGQGTMVTVSS
VL: DIQMTQSPSSLSASVGDRVTITCRASQSIGIYLNWYHQKPGKAPNLLIYGASSLQSGVPSRFSGSGSGTDFTLTISSLQPGDFATYYCQHSYSTPFTFGGGTKVEIK
notes: HC as printed runs into CH1
B13: M27-E03 (Fab, V domains shown)
VH: EVQLLESGGGLVQPGGSLRLSCAASGFTFSSYMMHWVRQAPGKGLEWVSGIYPSGGWTDYADSVKGRFTISRDNSKNTLYLQMNSLRAEDTATYYCARLVAGLDAFDIWGQGTMVTVSS
VL: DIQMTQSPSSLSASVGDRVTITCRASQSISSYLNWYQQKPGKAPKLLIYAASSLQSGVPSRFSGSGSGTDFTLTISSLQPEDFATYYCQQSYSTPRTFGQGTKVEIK
notes: HC as printed runs into CH1
B14: M12-B04 (Fab, V domains shown)
VH: EVQLLESGGGLVQPGGSLRLSCAASGFTFSLYSMYWVRQAPGKGLEWVSRIRPSGGGTVYADSVKGRFTISRDNSKNTLYLQMNSLRAEDTAVYYCARDPLYSSGDVWGQGTTVTVSS
VL: DIQMTQSPSSLSASVGDRVTITCRASQGIRNDLGWYQHKPGKAPKLLIYAASILQSGVPSRFSGTASGTDFTLTISSLQPEDFATYFCLQDYEYPLTFGGGTKLDIK
notes: HC as printed runs into CH1
B15: M11-G09 (Fab, V domains shown)
VH: EVQLLESGGGLVQPGGSLRLSCAASGFTFSLYNMTWVRQAPGKGLEWVSYIYPSGGGTHYADSVKGRFTISRDNSKNTLYLQMNSLRAEDTAVYYCARDTGFWSADAFDIWGQGTMVTVSS
VL: DIQMTQSPSSLSASVGDRVTITCRTSQGINHYLNWYQQKPGKAPKILVFAASELQTGVPSRFSGTGSGTSYTLTITSLQPEDVATYYCQQTYTSPYTFGQGTKLEVK
notes: HC as printed runs into CH1
B16: M12-C10 (Fab, V domains shown)
VH: EVQLLESGGGLVQPGGSLRLSCAASGFTFSDYEMHWVRQAPGKGLEWVSGISPSGGKTQYADSVKGRFTISRDNSKNTLYLQMNSLRAEDTAVYYCARDLKWGGRGSPDWYFDLWGRGTLVTVSS
VL: QSALTQPPSVSVSPGQTASITCSGDKLGEKYVSWYQQKPGQSPVVVIYQDNKRPSGIPERFSGSNSGNTATLTISGTQAVDEADYYCQAWDSYTVVFGGGSKLTVLG
notes: HC as printed runs into CH1
B17: M27-A10 (Fab, V domains shown)
VH: EVQLLESGGGLVQPGGSLRLSCAASGFTFSWYRMDWVRQAPGKGLEWVSSIWPSGGLTSYADSVKGRFTISRDNSKNTLYLQMNSLRAEDTAVYYCARGWAPGGDAFDIWGQGTMVTVSS
VL: DIQMTQSPSSLSASVGDRVTITCRASQSISAYLNWYQQKPGKAPQLLMYGVGSLQSGVPSRFSGSGSGTDFTLTISSLQPEDFATYFCQQGYTTPVTFGGGTKVEIK
notes: HC as printed runs into CH1

Target: T1, human plasma kallikrein (human, UniProt P03952 20-390; P03952 391-638)
T1 construct: also called pKal; Human pKal
T1 sequence (P03952 20-390, chain 1 of 2): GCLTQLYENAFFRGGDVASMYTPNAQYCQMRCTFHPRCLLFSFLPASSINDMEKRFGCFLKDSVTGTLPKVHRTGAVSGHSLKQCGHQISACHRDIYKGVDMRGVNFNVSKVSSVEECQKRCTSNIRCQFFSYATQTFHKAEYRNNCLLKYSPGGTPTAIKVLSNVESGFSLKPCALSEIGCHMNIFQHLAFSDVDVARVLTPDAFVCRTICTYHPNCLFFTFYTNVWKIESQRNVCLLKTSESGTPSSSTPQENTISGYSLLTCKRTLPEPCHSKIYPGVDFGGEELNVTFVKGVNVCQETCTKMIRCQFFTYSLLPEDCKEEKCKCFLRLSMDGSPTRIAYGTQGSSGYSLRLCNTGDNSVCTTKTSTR
T1 sequence (P03952 391-638, chain 2 of 2): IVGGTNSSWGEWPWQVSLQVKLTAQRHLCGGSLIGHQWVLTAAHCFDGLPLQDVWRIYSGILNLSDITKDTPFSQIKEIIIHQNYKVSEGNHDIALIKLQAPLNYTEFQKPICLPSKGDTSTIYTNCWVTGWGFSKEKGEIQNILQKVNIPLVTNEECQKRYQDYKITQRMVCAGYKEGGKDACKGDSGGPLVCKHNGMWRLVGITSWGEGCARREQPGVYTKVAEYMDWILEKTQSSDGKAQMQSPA
Assay: ELISA, biotinylated pKal signal over streptavidin background
Source text: Abbreviations used: “T/B” is the ELISA signal obtained using of the “target” (biotinylated plasma kallikrein) divided by the ELISA signal of the “background” (streptavidin); both of which were coated on microtiter plates, “nd” is not determined. The symbol “q” refers to the amber suppressible stop codon (TAG), which is translated as glutamine (Q) in strains of E. coli such as the TG1 cells that were used to express the Fab fragments.

Row | Binder | ELISA (T/B)
1 | B1 | 9.9 T/B
2 | B2 | 48 T/B
3 | B3 | 4.9 T/B
4 | B4 | 10.5 T/B
5 | B5 | 4.1 T/B
6 | B6 | 2.2 T/B
7 | B7 | 40.4 T/B
8 | B8 | 31.4 T/B
9 | B9 | 2.3 T/B
10 | B10 | 33.1 T/B
11 | B11 | 10 T/B
12 | B12 | 7 T/B
13 | B13 | 35.9 T/B
14 | B14 | 18 T/B
15 | B15 | 23.6 T/B
16 | B16 | 8.3 T/B
17 | B17 | 3.2 T/B

Source: US20260184815A1 (published 2026)
